{"source": "paper PMC5481743", "about": "“Cryptic indole hydroxylation by a non-canonical terpenoid cyclase parallels bacterial xenobiotic detoxification” (Nature Communications, 2017)", "key": {"[1]": {"biological_target": "T1, XiaF (Streptomyces sp. HKI0576, UniProt I7IIA9)", "T1 construct": "full-length (Met1-Leu397), N-terminal His-tag (pET-28b, thrombin-cleavable; pET-26b with MHHHHHH for crystals); from E. coli; homotetramer", "T1 sequence (I7IIA9 entry or part of it)": "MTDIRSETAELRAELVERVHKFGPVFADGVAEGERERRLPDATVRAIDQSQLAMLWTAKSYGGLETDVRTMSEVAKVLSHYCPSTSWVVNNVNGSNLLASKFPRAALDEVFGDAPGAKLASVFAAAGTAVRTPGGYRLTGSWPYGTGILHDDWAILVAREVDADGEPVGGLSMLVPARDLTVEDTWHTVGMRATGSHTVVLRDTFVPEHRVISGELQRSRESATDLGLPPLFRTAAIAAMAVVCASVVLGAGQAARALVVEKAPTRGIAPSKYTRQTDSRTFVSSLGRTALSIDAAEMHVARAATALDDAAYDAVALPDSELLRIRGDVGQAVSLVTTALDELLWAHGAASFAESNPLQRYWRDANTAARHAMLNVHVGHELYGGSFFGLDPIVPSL", "experiment": "HPLC-HRMS biotransformation assay", "format": "biochemical", "conditions": "100 uM substrate, 500 uM NADH, 50 uM FAD, flavin reductase XiaP, pH 8.0, 28 °C"}, "[2]": {"biological_target": "His-tagged XiaF (44.5 kDa, from pXU520) (Streptomyces sp. HKI0576)", "experiment": "SEC; HiLoad 16/600 Superdex 200 prep grade; 20 mM Tris-HCl pH 8.0, 100 mM NaCl; calibrated with Gel Filtration Calibration Kits"}, "[3]": {"biological_target": "XiaF (recombinant, N-terminal histidine-tag, construct pET26b(+)-xiaF used for crystallization) (Streptomyces sp. HKI0576)", "experiment": "crystal structure; hanging drop vapour diffusion at 20 °C; XiaF apo (5LVU), with FADH2 (5LVW), with FADH2 and glycerol (5MR6); molecular replacement"}, "[4]": {"biological_target": "untagged XiaF (42.4 kDa, tag cleaved with thrombin) (Streptomyces sp. HKI0576)", "experiment": "SEC; HiLoad 16/600 Superdex 200 prep grade; 20 mM Tris-HCl pH 8.0, 100 mM NaCl; calibrated with Gel Filtration Calibration Kits"}, "[5]": {"biological_target": "the molecule itself", "experiment": "SEC; HiLoad 16/600 Superdex 200 prep grade; 100 mM NaH2PO4, 100 mM Na2HPO4, 2% glycerol, pH 7.0"}}}
{"molecule": "C=C1CC[C@@H]2[C@](C)(CC[C@H](O)[C@@]2(C)C(=O)O)[C@H]1Cc1c[nH]c2ccccc12", "note": "[compound 2, indosespene]", "values": [{"measurement": "HPLC-HRMS biotransformation assay", "setting": "[1]", "result": "we found that XiaP substantially increases the performance of XiaF"}]}
{"molecule": "His-tagged XiaF (44.5 kDa, from pXU520) (enzyme)", "values": [{"measurement": "stoichiometry N", "setting": "[2]", "result": 4}]}
{"molecule": "XiaF (recombinant, N-terminal histidine-tag, construct pET26b(+)-xiaF used for crystallization) (enzyme)", "values": [{"measurement": "stoichiometry N", "setting": "[3]", "result": 4}]}
{"molecule": "untagged XiaF (42.4 kDa, tag cleaved with thrombin) (enzyme)", "values": [{"measurement": "stoichiometry N", "setting": "[4]", "result": 4}]}
{"molecule": "His-tagged XiaP (enzyme, Streptomyces sp. HKI0576, XiaP, NADH:flavin oxidoreductase of Streptomyces sp; HKI0576; also called flavin reductase XiaP; flavoenzyme-reductase; source: E. coli BL21-CodonPlus(DE3)-RP (pET28c-xiaP), purified (Ni-NTA, SEC)) MIDRETFVELMSGVCAPVTVVTTATADGRPHGSTVSSFTSLSLDPPLASFALDRGSGLLPHLHQGARVGVNILAAHQHALAASFARRCPGTGSKFDGITWTTRAGLPHLPDSAGWTAGRVERHVPGGDHVLLVISVEEAHSTPAAPLVYLRRSFGTYSGLPAGG", "values": [{"measurement": "stoichiometry N", "setting": "[5]", "result": 2}]}
